Paper PMC9287321 (Scientific Reports, 2022)

Biological target: T1, AFP_(158–166) peptide complexed with HLA-A*02:01 (Homo sapiens, HLA-A*02:01)
T1 construct: HLA-A*02:01 heavy chain, soluble recombinant; β2-microglobulin, recombinant; alpha-fetoprotein (AFP) peptide, residues 158–166; also called AFP/HLA-A*02; AFP/HLA-A*02 complex; copies: + +
Assay: SPR; Biacore T200, CM5 chip; AFP/HLA-A*02 amine coupled (100–200 RU); kinetic titration, five injections of increasing TCRm, 100 μL/min, 25 °C; 1:1 binding model; mean of three experiments
Conditions: both partners purified

- Kd: 7 nM
B1: anti-AFP TCRm antibody, Fab fragment (Fab, V domains shown)
VH: EVQLVQSGAEVKKPGESLTISCKASGYSFPNYWITWVRQMSGGGLEWMGRIDPGDSYTTYNPSFQGHVTISIDKSTNTAYLHWNSLKASDTAMYYCARYYVSLVDIWGQGTLVTVSS
VL: QSVLTQPASVSGSPGQSITISCTGTSSDVGGYNYVSWYQQHPGKAPKLMIYDVNNRPSEVSNRFSGSKSGNTASLTISGLQAEDEADYYCSSYTTGSRAVFGGGTKLTVL
notes: Fab cut by papain from human IgG1; also called TCR mimic antibody; TCRm Fab fragment
